Measured values as given in publication PMC7615752, “The histone chaperone SPT2 regulates chromatin structure and function in Metazoa”.

Molecular target: T1, HsSPT2 WT (Homo sapiens, UniProt Q68D10 1-685)
T1 sequence: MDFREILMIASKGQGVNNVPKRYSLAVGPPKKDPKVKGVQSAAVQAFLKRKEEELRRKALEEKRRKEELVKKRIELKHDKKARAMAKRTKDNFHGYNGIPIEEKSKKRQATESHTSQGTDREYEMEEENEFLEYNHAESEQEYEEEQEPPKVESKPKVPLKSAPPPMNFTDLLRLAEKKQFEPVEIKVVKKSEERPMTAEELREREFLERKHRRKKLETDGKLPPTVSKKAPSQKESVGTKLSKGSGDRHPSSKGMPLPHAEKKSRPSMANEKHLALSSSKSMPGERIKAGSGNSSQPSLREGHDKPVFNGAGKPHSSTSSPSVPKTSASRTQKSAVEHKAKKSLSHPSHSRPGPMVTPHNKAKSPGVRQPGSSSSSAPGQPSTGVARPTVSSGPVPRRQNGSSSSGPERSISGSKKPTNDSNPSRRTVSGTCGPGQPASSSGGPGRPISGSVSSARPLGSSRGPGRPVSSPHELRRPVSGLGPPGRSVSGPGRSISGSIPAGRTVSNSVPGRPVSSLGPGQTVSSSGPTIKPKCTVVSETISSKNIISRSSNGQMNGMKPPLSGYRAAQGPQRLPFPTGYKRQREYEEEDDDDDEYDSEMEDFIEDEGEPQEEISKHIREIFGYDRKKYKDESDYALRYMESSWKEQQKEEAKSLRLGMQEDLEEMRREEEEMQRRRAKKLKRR
Assay: EMSA; 1 mM EDTA; 10 nM DNA; 25 mM Tris-HCl pH 8.0, 55 mM NaCl, 1 mM EDTA, 1 mM DTT, 0.1 mg/ml BSA, 1% glycerol, 37 C 15 min; native 8% PAGE
Conditions: protein: recombinant; tags: His6; label: 5'-32P; four-way junction of 4 x 40 nt strands, each arm 20 bp

B1: synthetic cruciform DNA (four-way Holliday junction J3b/J3h/J3r/J3x(40)) (structured_DNA)
DNA 1: AGGGATCCGTCCTAGCAAGGGGCTGCTACCGGAAGCTTAC
DNA 2: GTAAGCTTCCGGTAGCAGCCTGAGCGGTGGTTGAATTCAC
DNA 3: GTGAATTCAACCACCGCTCAACTCAACTGCAGTCTAGAAC
DNA 4: GTTCTAGACTGCAGTTGAGTCCTTGCTAGGACGGATCCCT
B1: binds.
